From US20240117005A1 (COUNCIL OF THE QUEENSLAND INSTITUTE OF MEDICAL RESEARCH, published 2024) come the findings set out here.

Assay [1] concerns the target T1, importin-α1 (IMPα1) (human, UniProt P52292 2-529). Kind of assay: DUOLINK proximity ligation in permeabilised MDA-MB-231 cells; loss of the PDL1-Ac:IMPα1 complex, DL-2 10 to 0.00975 µM.
In assay [2] the target is T1, importin-α1 (IMPα1). Kind of assay: DUOLINK proximity ligation; IC50 of DL-2-NP against IC50 of naked DL-2 for the PDL1:IMPα1 complex.
Assay [3] deals with T1, importin-α1 (IMPα1). Kind of assay: DUOLINK proximity ligation in permeabilised MDA-MB-231 cells; loss of the PDL1:IMPα1 complex, DL-2-NP 10 to 0.3 nM.

In general, IC50 refers to the point on the concentration scale where inhibition reaches its midpoint. Read a low IC50 as greater potency in that assay.

Starred links: 1 amine or outer side, 2 acyl side, 3 side chain; linkers in the order of their positions; H or OH if unused. Positions of bridges follow the written chain, without caps; N, C: chain ends. No end group written: not given here. *: point of attachment. TBMB = c1c(C[*:1])cc(C[*:3])cc1C[*:2]; Myristyl = CCCCCCCCCCCCCC*

B1: DL-2 bicyclic peptide (Myristyl-ACLTFIFCRLRKGRCMMDVKK on TBMB scaffold) (peptide)
peptide: Myristyl-ACLTFIFCRLRKGRCMMDVKK
modifications: linker 2-8-15 via TBMB
notes: also called DL-2-TBMB; DL-2-Batch 1
In the assay with importin-α1 (IMPα1) [1], B1 had an IC50 of 39 nM. That is a double-digit nanomolar value.

B2: DL-2 nanoparticle (DL-2 bicyclic peptide encapsulated in a lipid nanoparticle) (peptide)
peptide: ACLTFIFCRLRKGRCMMDVKK
modifications: N-terminal myristyl; cysteines covalently bound to the TBMB scaffold (bicyclic); peptide packaged in a POPC / cholesterol / DSPE-PEG lipid nanoparticle
notes: Same peptide as DL-2, in a different formulation; also called DL-2-NP
Consider B2, for which the “fold more potent than DL-2” value with importin-α1 (IMPα1) [2] was approximately 39 fold. The molecule further registered an IC50 with importin-α1 (IMPα1) [3] of 1 nM.
